From article PMC3035906 (Cell Death & Disease, 2010)

Biological target: DR4-Ig (death receptor 4, Ig fusion) (UniProt O00220)
Assay: SPR

Sequence of DR4-Ig (death receptor 4, Ig fusion) (O00220 24-239): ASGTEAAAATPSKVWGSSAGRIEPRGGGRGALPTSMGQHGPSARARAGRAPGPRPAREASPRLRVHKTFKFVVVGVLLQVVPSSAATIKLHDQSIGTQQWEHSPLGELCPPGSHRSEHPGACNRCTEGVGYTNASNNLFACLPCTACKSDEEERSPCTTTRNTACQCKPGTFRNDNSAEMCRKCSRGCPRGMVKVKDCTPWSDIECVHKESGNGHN

B1: rhTRAIL variant 4C7 (G131R/R149I/S159R/N199R/K201H/S215D) (ligand)
chain: VRERGPQRVAAHITGTRRRSNTLSSPNSKNEKALGIKINSWESSRRGHSFLSNLHLRNGELVIHEKGFYYIYSQTYFRFQEEIKERTHNDKQMVQYIYKYTDYPDPILLMKSARNSCWSKDAEYGLYSIYQGGIFELKENDRIFVSVTNEHLIDMDHEASFFGAFLVG
B1 gave a Kd of 21 ± 10 pM, a koff of 5.9e-05 s⁻¹ and a kon of 2.81e+06 M⁻¹ s⁻¹.

B2: rhTRAIL variant 4C9 (G131R/R149I/S159R/S215D) (ligand)
chain: VRERGPQRVAAHITGTRRRSNTLSSPNSKNEKALGIKINSWESSRRGHSFLSNLHLRNGELVIHEKGFYYIYSQTYFRFQEEIKENTKNDKQMVQYIYKYTDYPDPILLMKSARNSCWSKDAEYGLYSIYQGGIFELKENDRIFVSVTNEHLIDMDHEASFFGAFLVG
B2 gave a Kd of 25 ± 20 pM, a koff of 5.8e-05 s⁻¹ and a kon of 2.35e+06 M⁻¹ s⁻¹.
